# Source: IntAct's records for PubMed 32296183
# B1: Golgi SNAP receptor complex member 2 (Homo sapiens), O14653 (parent)
# chain: MDPLFQQTHKQVHEIQSCMGRLETADKQSVHIVENEIQASIDQIFSRLERLEILSSKEPPNKRQNARLRVDQLKYDVQHLQTALRNFQHRRHAREQQERQREELLSRTFTTNDSDTTIPMDESLQFNSSLQKVHNGMDDLILDGHNILDGLRTQRLTLKGTQKKILDIANMLGLSNTVMRLIEKRAFQDKYFMIGGMLLTCVVMFLVVQYLT
# partner: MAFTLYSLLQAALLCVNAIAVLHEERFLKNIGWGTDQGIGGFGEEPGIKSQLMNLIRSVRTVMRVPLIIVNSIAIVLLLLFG
# B2: Golgi SNAP receptor complex member 2 (Homo sapiens), O14653 (parent)
# chain: B1 chain
# partner: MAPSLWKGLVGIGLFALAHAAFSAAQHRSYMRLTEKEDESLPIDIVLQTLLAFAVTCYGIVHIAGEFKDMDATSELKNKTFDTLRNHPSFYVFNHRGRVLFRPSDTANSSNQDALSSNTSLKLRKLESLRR
# B3: Very-long-chain enoyl-CoA reductase (Homo sapiens), Q9NZ01 (parent)
# chain: MKHYEVEILDAKTREKLCFLDKVEPHATIAEIKNLFTKTHPQWYPARQSLRLDPKGKSLKDEDVLQKLPVGTTATLYFRDLGAQISWVTVFLTEYAGPLFIYLLFYFRVPFIYGHKYDFTSSRHTVVHLACICHSFHYIKRLLETLFVHRFSHGTMPLRNIFKNCTYYWGFAAWMAYYINHPLYTPPTYGAQQVKLALAIFVICQLGNFSIHMALRDLRPAGSKTRKIPYPTKNPFTWLFLLVSCPNYTYEVGSWIGFAIMTQCLPVALFSLVGFTQMTIWAKGKHRSYLKEFRDYPPLRMPIIPFLL
# partner: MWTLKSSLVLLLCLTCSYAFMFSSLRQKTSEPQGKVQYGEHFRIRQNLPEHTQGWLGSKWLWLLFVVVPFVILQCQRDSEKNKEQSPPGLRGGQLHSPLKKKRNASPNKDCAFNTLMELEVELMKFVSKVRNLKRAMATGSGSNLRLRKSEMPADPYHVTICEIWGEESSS
# B4: Golgi SNAP receptor complex member 2 (Homo sapiens), O14653 (parent)
# chain: B1 chain
# partner: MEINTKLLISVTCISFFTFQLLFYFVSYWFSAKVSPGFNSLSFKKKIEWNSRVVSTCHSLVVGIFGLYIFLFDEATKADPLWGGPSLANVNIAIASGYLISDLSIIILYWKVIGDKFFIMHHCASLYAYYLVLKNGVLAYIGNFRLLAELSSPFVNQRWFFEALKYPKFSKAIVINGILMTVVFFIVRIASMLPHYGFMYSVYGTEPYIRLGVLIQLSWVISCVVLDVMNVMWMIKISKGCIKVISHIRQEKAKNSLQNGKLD
# B5: Golgi SNAP receptor complex member 2 (Homo sapiens), O14653 (parent)
# chain: B1 chain
# partner: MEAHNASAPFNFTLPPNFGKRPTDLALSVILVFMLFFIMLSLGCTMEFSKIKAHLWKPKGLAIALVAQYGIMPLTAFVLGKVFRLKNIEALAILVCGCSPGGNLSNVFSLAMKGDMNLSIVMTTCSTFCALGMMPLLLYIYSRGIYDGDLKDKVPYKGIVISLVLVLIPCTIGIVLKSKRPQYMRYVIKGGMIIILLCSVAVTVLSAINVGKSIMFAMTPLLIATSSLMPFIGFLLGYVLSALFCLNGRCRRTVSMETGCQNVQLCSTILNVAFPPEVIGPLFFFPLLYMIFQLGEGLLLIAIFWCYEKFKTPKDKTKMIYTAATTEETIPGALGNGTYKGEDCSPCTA
# B6: Golgi SNAP receptor complex member 2 (Homo sapiens), O14653 (parent)
# chain: B1 chain
# partner: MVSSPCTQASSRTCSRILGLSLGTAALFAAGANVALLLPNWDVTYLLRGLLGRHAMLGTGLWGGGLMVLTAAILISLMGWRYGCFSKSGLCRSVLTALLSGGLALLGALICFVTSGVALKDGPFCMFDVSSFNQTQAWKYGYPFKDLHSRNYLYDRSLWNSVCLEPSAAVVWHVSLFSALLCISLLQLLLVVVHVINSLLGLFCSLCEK
# B7: Ceroid-lipofuscinosis neuronal protein 6 (Homo sapiens), Q9NWW5 (parent)
# chain: MEATRRRQHLGATGGPGAQLGASFLQARHGSVSADEAARTAPFHLDLWFYFTLQNWVLDFGRPIAMLVFPLEWFPLNKPSVGDYFHMAYNVITPFLLLKLIERSPRTLPRSITYVSIIIFIMGASIHLVGDSVNHRLLFSGYQHHLSVRENPIIKNLKPETLIDSFELLYYYDEYLGHCMWYIPFFLILFMYFSGCFTASKAESLIPGPALLLVAPSGLYYWYLVTEGQIFILFIFTFFAMLALVLHQKRKRLFLDSNGLFLFSSFALTLLLVALWVAWLWNDPVLRKKYPGVIYVPEPWAFYTLHVSSRH
# partner: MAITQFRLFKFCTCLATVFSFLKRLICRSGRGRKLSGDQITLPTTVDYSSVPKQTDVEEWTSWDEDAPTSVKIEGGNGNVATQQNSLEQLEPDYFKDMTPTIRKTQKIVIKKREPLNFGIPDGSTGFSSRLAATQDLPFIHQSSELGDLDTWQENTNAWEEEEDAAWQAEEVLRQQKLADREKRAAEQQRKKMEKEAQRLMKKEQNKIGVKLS
# Variants of: B1
# Conditions: with ir3ip_human IER3IP1, Q9Y5U9
row,Variant,effect of a mutation on the interaction
1,MDPLFQQTHKQVHEIQSCMGRLETADKQSVHIVENEIQASIDQIFSRLERLEILSSKEPPNKRQNARLRVDQLKYDVQHLQTALRNFQHRRHAREQQERQREELLSRTFTTNDSDTTIPMDESLQFNSSLQKVHNGMDDLILDWHNILDGLRTQRLTLKGTQKKILDIANMLGLSNTVMRLIEKRAFQDKYFMIGGMLLTCVVMFLVVQYLT [G144W],with no effect

# Variants of: B2
# Conditions: with emc5_human MMGT1, Q8N4V1
row,Variant,effect of a mutation on the interaction
1,MDPLFQQTHKQVHEIQSCMGRLETADKQSVHIVENEIQASIDQIFSRLERLEILSSKEPPNKRQNARLRVDQLKYDVQHLQTALRNFQHRRHAREQQERQREELLSRTFTTNDSDTTIPMDESLQFNSSLQKVHNGMDDLILDWHNILDGLRTQRLTLKGTQKKILDIANMLGLSNTVMRLIEKRAFQDKYFMIGGMLLTCVVMFLVVQYLT [G144W],with no effect

# Variants of: B3
# Conditions: with FAM209A
row,Variant,effect of a mutation on the interaction
1,MKHYEVEILDAKTREKLCFLDKVEPHATIAEIKNLFTKTHPQWYPARQSLRLDPKGKSLKDEDVLQKLPVGTTATLYFRDLGAQISWVTVFLTEYAGPLFIYLLFYFRVPFIYGHKYDFTSSRHTVVHLACICHSFHYIKRLLETLFVHRFSHGTMPLRNIFKNCTYYWGFAAWMAYYINHLLYTPPTYGAQQVKLALAIFVICQLGNFSIHMALRDLRPAGSKTRKIPYPTKNPFTWLFLLVSCPNYTYEVGSWIGFAIMTQCLPVALFSLVGFTQMTIWAKGKHRSYLKEFRDYPPLRMPIIPFLL [P182L],disrupting interaction strength

# Variants of: B4
# Conditions: with tlcd4_human TLCD4, Q96MV1
row,Variant,effect of a mutation on the interaction
1,MDPLFQQTHKQVHEIQSCMGRLETADKQSVHIVENEIQASIDQIFSRLERLEILSSKEPPNKRQNARLRVDQLKYDVQHLQTALRNFQHRRHAREQQERQREELLSRTFTTNDSDTTIPMDESLQFNSSLQKVHNGMDDLILDWHNILDGLRTQRLTLKGTQKKILDIANMLGLSNTVMRLIEKRAFQDKYFMIGGMLLTCVVMFLVVQYLT [G144W],with no effect

# Variants of: B5
# Conditions: with ntcp_human SLC10A1, Q14973
row,Variant,effect of a mutation on the interaction
1,MDPLFQQTHKQVHEIQSCMGRLETADKQSVHIVENEIQASIDQIFSRLERLEILSSKEPPNKRQNARLRVDQLKYDVQHLQTALRNFQHRRHAREQQERQREELLSRTFTTNDSDTTIPMDESLQFNSSLQKVHNGMDDLILDWHNILDGLRTQRLTLKGTQKKILDIANMLGLSNTVMRLIEKRAFQDKYFMIGGMLLTCVVMFLVVQYLT [G144W],with no effect

# Variants of: B6
# Conditions: with TM4SF19, Q96DZ7
row,Variant,effect of a mutation on the interaction
1,MDPLFQQTHKQVHEIQSCMGRLETADKQSVHIVENEIQASIDQIFSRLERLEILSSKEPPNKRQNARLRVDQLKYDVQHLQTALRNFQHRRHAREQQERQREELLSRTFTTNDSDTTIPMDESLQFNSSLQKVHNGMDDLILDWHNILDGLRTQRLTLKGTQKKILDIANMLGLSNTVMRLIEKRAFQDKYFMIGGMLLTCVVMFLVVQYLT [G144W],with no effect

# Variants of: B7
# Conditions: with rcas1_human EBAG9, O00559
row,Variant,effect of a mutation on the interaction
1,MEATRTRQHLGATGGPGAQLGASFLQARHGSVSADEAARTAPFHLDLWFYFTLQNWVLDFGRPIAMLVFPLEWFPLNKPSVGDYFHMAYNVITPFLLLKLIERSPRTLPRSITYVSIIIFIMGASIHLVGDSVNHRLLFSGYQHHLSVRENPIIKNLKPETLIDSFELLYYYDEYLGHCMWYIPFFLILFMYFSGCFTASKAESLIPGPALLLVAPSGLYYWYLVTEGQIFILFIFTFFAMLALVLHQKRKRLFLDSNGLFLFSSFALTLLLVALWVAWLWNDPVLRKKYPGVIYVPEPWAFYTLHVSSRH [R6T],with no effect
2,MEATRRRQHLGATGGPGAQLGASFLQARHGSVSADEAARTAPFHLDFWFYFTLQNWVLDFGRPIAMLVFPLEWFPLNKPSVGDYFHMAYNVITPFLLLKLIERSPRTLPRSITYVSIIIFIMGASIHLVGDSVNHRLLFSGYQHHLSVRENPIIKNLKPETLIDSFELLYYYDEYLGHCMWYIPFFLILFMYFSGCFTASKAESLIPGPALLLVAPSGLYYWYLVTEGQIFILFIFTFFAMLALVLHQKRKRLFLDSNGLFLFSSFALTLLLVALWVAWLWNDPVLRKKYPGVIYVPEPWAFYTLHVSSRH [L47F],with no effect
3,MEATRRRQHLGATGGPGAQLGASFLQARHGSVSADEAARTAPFHLDLWFYFTLQNWVLDFGRPIAMLVFPLEWFPLNKPSVGDYFHMAYNVITPFLLLKLIERSPRTLPRSITYVSIIIFIMDASIHLVGDSVNHRLLFSGYQHHLSVRENPIIKNLKPETLIDSFELLYYYDEYLGHCMWYIPFFLILFMYFSGCFTASKAESLIPGPALLLVAPSGLYYWYLVTEGQIFILFIFTFFAMLALVLHQKRKRLFLDSNGLFLFSSFALTLLLVALWVAWLWNDPVLRKKYPGVIYVPEPWAFYTLHVSSRH [G123D],with no effect
